# Assay results as given in US20250011363A1, “OPTIMIZED SHORTENED PEPTIDE THAT BINDS TO ACETYLCHOLINE RECEPTOR, AND USE THEREOF” (SKINMED CO., LTD., priority 2021, published 2025).
# Biological target: acetylcholine receptor (Homo sapiens, UniProt P02708)
# Test: SPR binding affinity (RU) of optimized 5mer/6mer/7mer peptides, Examples 6-7
# Conditions: 6mer-2 Top sequence; SPR; peptides tested at 10 μM
# How it was run: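 SPR, peptides at 10 μM; read-out = response units (RU). Sequences drawn from top- or bottom-frequency amino acid combinations, 5mer/6mer-1/6mer-2 libraries.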
# Chain of acetylcholine receptor (P02708 21-457): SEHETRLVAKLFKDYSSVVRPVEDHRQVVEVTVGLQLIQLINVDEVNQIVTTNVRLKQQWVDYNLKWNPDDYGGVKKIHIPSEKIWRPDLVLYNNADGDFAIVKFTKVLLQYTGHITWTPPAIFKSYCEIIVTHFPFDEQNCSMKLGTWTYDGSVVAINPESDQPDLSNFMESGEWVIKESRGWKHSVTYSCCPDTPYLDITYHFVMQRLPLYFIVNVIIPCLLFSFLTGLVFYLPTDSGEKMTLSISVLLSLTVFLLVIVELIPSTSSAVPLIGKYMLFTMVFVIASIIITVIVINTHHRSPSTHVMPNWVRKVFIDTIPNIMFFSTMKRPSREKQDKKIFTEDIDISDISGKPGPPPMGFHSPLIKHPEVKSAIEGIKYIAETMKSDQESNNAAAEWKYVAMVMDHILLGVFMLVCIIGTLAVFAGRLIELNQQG
row,Substance,Binding affinity [Ru]
1,6mer-2-79 (RQLSKR),135
2,6mer-2-80 (RRQYKR),148
3,6mer-2-81 (RRVSRR),121
4,6mer-2-82 (RGVQKK),124
5,6mer-2-83 (KQYQRR),135
6,6mer-2-84 (KQRYKK),139
7,6mer-2-85 (KSQYKR),137
8,6mer-2-86 (KQFRRK),126
9,6mer-2-87 (RRLTKR),142
10,6mer-2-88 (KSFQRR),141
11,6mer-2-89 (KSRSKK),141
12,6mer-2-90 (KGRTKR),133
13,6mer-2-91 (KWIYKR),121

# Same assay, conditions: SPR, Resonance Units; peptides tested at 10 μM; 6mer-1 Bottom sequence
row,Substance,Binding affinity [Ru]
1,6mer-1-1136 (KKIEIK),34
2,6mer-1-1137 (KRFTDK),33
3,6mer-1-1138 (KRDCFR),21
4,6mer-1-1139 (KKMENR),36
5,6mer-1-1140 (KRATMK),43
6,6mer-1-1141 (KRNMHK),40
7,6mer-1-1142 (KKETPR),24
8,6mer-1-1143 (KRHEFK),32
9,6mer-1-1144 (KKCMGR),25
10,6mer-1-1145 (RRDCKK),40
11,6mer-1-1146 (KKMMPK),34
12,6mer-1-1147 (RKAPHR),35
13,6mer-1-1148 (RRCSHR),31
14,6mer-1-1149 (RKMTPK),30
15,6mer-1-1150 (KRKWWR),34
16,6mer-1-1151 (KKKEAK),34
17,6mer-1-1152 (RKYKEK),23
18,6mer-1-1153 (RKHNKK),23
19,6mer-1-1154 (RKCEKR),41
20,6mer-1-1155 (RKKEKR),28
21,6mer-1-1156 (KRYTVR),37

row,Substance,Binding affinity [Ru]
1,6mer-1-1157 (RKESVR),36
2,6mer-1-1158 (RKPMMK),33
3,6mer-1-1159 (RRAWPR),39
4,6mer-1-1160 (RRDWAK),29
5,6mer-1-1161 (KRHWVK),40
6,6mer-1-1162 (KKCDHR),41
7,6mer-1-1163 (RKCAFK),21
8,6mer-1-1164 (KKHHAK),41
9,6mer-1-1165 (RRATWR),29
10,6mer-1-1166 (KKEEKR),22
11,6mer-1-1167 (KRHMMK),42
12,6mer-1-1168 (KKEKFR),40
13,6mer-1-1169 (RKMDIR),32
14,6mer-1-1170 (KKYNPK),25
15,6mer-1-1171 (RKIAFK),40
16,6mer-1-1172 (RRFNFR),23
17,6mer-1-1173 (KKIPMK),26
18,6mer-1-1174 (RKDAIR),30
19,6mer-1-1175 (RKTWEK),23
20,6mer-1-1176 (KKADHK),21
21,6mer-1-1177 (RRHTMR),21

row,Substance,Binding affinity [Ru]
1,6mer-1-1178 (RKKMAK),29
2,6mer-1-1179 (KRMTPR),40
3,6mer-1-1180 (KRPPPK),34
4,6mer-1-1181 (RRMDAK),21
5,6mer-1-1182 (KKTCHR),35
6,6mer-1-1183 (RKIHNK),35
7,6mer-1-1184 (RRDTVK),30
8,6mer-1-1185 (KKEMMK),29
9,6mer-1-1186 (KKNNAK),37
10,6mer-1-1187 (RRHAHK),26
11,6mer-1-1188 (RRMNER),41
12,6mer-1-1189 (KKCHWR),40
13,6mer-1-1190 (KKCMKR),29
14,6mer-1-1191 (RKYTKK),39
15,6mer-1-1192 (RKDDDR),36
16,6mer-1-1193 (KKPTNK),33
17,6mer-1-1194 (KKTHAK),22
18,6mer-1-1195 (KRDEDK),25
19,6mer-1-1196 (KKTTGR),25
20,6mer-1-1197 (KRPMAK),21

# Same assay, conditions: SPR, peptides tested at 10 μM; 6mer-1 Bottom sequence
row,Substance,Binding affinity [Ru]
1,6mer-1-1198 (RRATER),28
2,6mer-1-1199 (KKTNKR),39
3,6mer-1-1200 (RKACEK),21

# Same assay, conditions: SPR, peptides tested at 10 μM; 6mer-1 Top sequence
row,Substance,Binding affinity [Ru]
1,6mer-1-1405 (KKVQTR),148
2,6mer-1-1458 (RKGQLK),139
